From patent publication US11311625B2, “Peptide-based multiple-drug delivery vehicle” (priority 2015, dated 2022) come the findings set out here.

Like-named read-outs stand apart in the source and are kept apart here.

The subject of data set [1] is HCT 116, H1299, TRAMP C2 and HEK cell lines. Briefly: XTT growth inhibition assay, statements over all tested cell lines. It counts as cell-based, human. Conditions: 1-10 μM, 24 and 72 h. The method, then: (§1) The cytotoxicity of the peptide-drug conjugates was determined by measuring the mitochondrial enzyme activity, using a commercial XTT assay kit. All samples contained DMSO at final concentration <0.05%. Cells were cultured in micro wells at 2-4×10^4 cells/ml and incubated for 24 h or 72 h. After the first incubation period the cultures were washed and then given fresh medium containing different concentrations of the tested substances. At the end of the second incubation, XTT reagent was added and the cells were re-incubated for additional 2-4 h. During that time the absorbencies in the wells were measured with a TECAN Infinite M200 plate reader at both 480 and 680 nm. The difference between these measurements was used for calculating the % Growth Inhibition (GI) in test wells compared to two controls: cells that were exposed to the medium and solvent, and those that were exposed to a solvent-free medium. All the tests were done in quadruplicates. Each experiment was conducted twice.
(§2) In order to compare the cytotoxic effects of the conjugates relative to the free drugs, the in vitro cytotoxic effect of the drug bioconjugates 1a-e was determined on SSTR2 overexpressed HCT 116 human colorectal carcinoma, H1299 human non-small cell lung carcinoma and TRAMP C2 human prostate cancer cell lines. The SSTR2 low-expressed HEK-293 (Human Embryonic Kidney 293) cell line was used as a negative control. The study was elaborated over a concentration range of 1-10 μM.
FIGS. 13A-13D present the results of the XTT growth inhibition assay conducted for conjugates 1a-e. Growth inhibition effect of drug-conjugates versus free drugs was studied on three cell lines with an over-expression of SSTR2 (FIG. 13A. HCT 116; FIG. 13B. H1299; FIG. 13C. TRAMP C2) against the SSTR2 low expression cell line (FIG. 13D) HEK as negative control. All the cell lines were seeded and allowed to adhere in the wells, after which they were treated with the different compounds in increasing concentrations for 24 and 72 hr. After the treatment, growth inhibition was measured using the XTT assay: The culture medium was replaced by a new one, and then the XTT reagent was added. The wells were incubated for 2-4 hrs. after which the optical density (OD) was measured at 480 and 680 nm. Percentage of growth inhibition for each compound was calculated by comparison of the treated culture versus a control culture (free of any compound). The result shown for each concentration point represents the mean±standard error calculated from two different experiments. In each experiment the compounds were tested in quadruplicates.
A general note: Formazan colour is commonly taken as a measure of viable cells.

Data set [2] relates to TRAMP C2 prostate cancer cell lines. Briefly: XTT growth inhibition assay, TRAMP C2. It counts as cell-based, human. The following applies: compared with corresponding free drugs. The method, then: as §1, with “The difference between these measurements was used for calculating the % Growth Inhibition (GI) in test wells compared to two controls: cells that were exposed to the medium and solvent, and those that were exposed to a solvent-free medium. All the tests were done in quadruplicates. Each experiment was conducted twice.” left out
In order to compare the cytotoxic effects of the conjugates relative to the free drugs, the in vitro cytotoxic effect of the drug bioconjugates 1a-e was determined on SSTR2 overexpressed HCT 116 human colorectal carcinoma, H1299 human non-small cell lung carcinoma and TRAMP C2 human prostate cancer cell lines. […]
(§3) FIGS. 13A-13D present the results of the XTT growth inhibition assay conducted for conjugates 1a-e. […] After the treatment, growth inhibition was measured using the XTT assay: The culture medium was replaced by a new one, and then the XTT reagent was added. The wells were incubated for 2-4 hrs. after which the optical density (OD) was measured at 480 and 680 nm. […]

A short description of data set [3]: Bio-stability and drug release of conjugates 1a-e in murine liver homogenate (LH). It counts as in vitro ADME, mouse. The method, then:
Preparation of liver homogenate: Mice were sacrificed by CO2 inhalation euthanasia. The livers were removed, minced, washed three times in cold PBS buffer and homogenized in Tris-HCl buffer, pH 7.4 (wt/3 vol.) by dozen strokes in a Potter-Elvehjem glass tissue grinder. The tissue homogenate was centrifuged at 4° C., 14000 rpm, 20 min. The supernatant was carefully collected (liver homogenate) and used immediately or else stored in liquid nitrogen.
Incubation procedure: Incubations were conducted in a 37° C. incubator with 2 ml homogenate (equivalent to 6 mg total protein of mouse liver homogenate) per incubation tube. The samples were prepared by adding 50 μl of stock solution to the homogenate (homogenate mixture) at the beginning of the incubation period. Aliquots of the homogenate mixture were removed after 10, 30, 60, 90, 120 and 180 min and then immediately quenched with 2.5 volumes of ethanol. The samples were centrifuged at 14000 rpm for 15 min. Supernatants were collected, filtered and analyzed by LC-MS.
FIGS. 12A-12E present the results of the bio-stability and drug release profiles assays conducted for conjugates 1a-e in LH. […] Stock solutions were prepared by dissolving 5 mg of the measured conjugate in 0.5 ml DMSO. 50 μl of the stock solution were diluted with 2 ml of fresh mouse liver homogenate and then the mixture was incubated at 37° C. Aliquots were collected at 10, 30, 60, 90 and 120 min, mixed with 2.5 volumes of ethanol and centrifuged (14,000 rpm, 15 min). The supernatants were collected, filtered and analyzed by LC-MS

Data set [4] in a line: Chemo-stability and drug release of conjugates 1a-e in buffers at pH 2, 5 and 7.4 (LC-MS). The data set is classed as physicochemical. The following applies: for half-life at 0.4 mg/ml: buffer. The method, then:
Incubation procedure: Aqueous stability was determined at pH 2.0 (phosphate buffer), 5.0 (citrate buffer) and 7.4 (PBS buffer). 100 μl of the stock solutions were diluted to 2.5 ml with the desired buffer and then incubated at 37° C. During the incubation period (up to 200 hrs.), aliquots were removed at different time intervals, filtered and analyzed by LC-MS.
Chemo-stability. The chemo-stability tests of the conjugates were performed at three different pH values; a physiological pH of 7.4, the slightly acidic pH 5, mimicking the microenvironment in tumors, and the more acidic pH 2.
FIGS. 11A-11J present the results of the chemo-stability and drug release profiles assays, conducted for conjugates 1a-e at pH 2, 5 and 7.4. Degradation of 1a (FIG. 11A), 1b (FIG. 11C), 1c (FIG. 11E), 1d (FIG. 11G), 1e FIG. 11 (FIG. 11I), and the release of the corresponding drugs: CLB (FIG. 11B), CPT (FIG. 11D), AM (FIG. 11F), ABT-751 (FIG. 11H), and COMB (FIG. 11J). Stock solutions were prepared by dissolving 5 mg of the measured conjugate in 0.5 ml DMSO. 100 μl of the stock solution were diluted to 2.5 ml with the relevant buffer and then incubated at 37° C. Along the incubation period, aliquots were taken at the desired time points and analyzed by LC-MS.

The test system of data set [5] is H1299 human non-small cell lung carcinoma cells. Briefly: XTT growth inhibition assay, H1299. The data set is classed as cell-based. The following applies: 10 μM, incubation of 72 h. How it is done: as §1, §2
as §3, with “nm. Percentage of growth inhibition for each compound was calculated by comparison of the treated culture versus a control culture (free of any compound). The result shown for each concentration point represents the mean±standard error calculated from two different experiments.” for “nm.”

On to `COc1ccc(/C=C\c2cc(OC)c(OC)c(OC)c2)cc1OC(=O)NCCCC(=O)N[C@H](Cc1ccccc1)C(=O)N[C@H]1CSSCCN(CC(N)=O)C(=O)[C@H](Cc2ccccc2)NC(=O)[C@H]([C@@H](C)O)NC(=O)[C@H](CCCCN)NC(=O)[C@@H](Cc2c[nH]c3ccccc23)NC(=O)[C@H](Cc2c[nH]c3ccccc23)NC(=O)[C@H](Cc2ccccc2)NC1=O` [conjugate 1e], for which, in data set [1], the “cytotoxicity throughout the study” value is recorded as “targeted but cell selective cytotoxicity”. In addition, the “cytotoxic effect on TRAMP C2” value in data set [2] is given as “most potent targeted therapeutic effect”. The half-life at 0.244 mg/ml in data set [3] (mouse, tissue homogenate, pH 7.4, 37° C., read-out: degradation t1/2 in liver homogenate) stood at 26 min. In data set [4] (acidic media, especially pH 2), the “degradation of conjugate in acidic media” value was “degrades rapidly”. Moreover, the half-life at 0.4 mg/ml in data set [4] (pH 2, 37° C., read-out: degradation t1/2) is 4 min.

Consider `COc1ccc(S(=O)(=O)Nc2cccnc2Nc2ccc(OC(=O)NCCCC(=O)N[C@H](Cc3ccccc3)C(=O)N[C@H]3CSSCCN(CC(N)=O)C(=O)[C@H](Cc4ccccc4)NC(=O)[C@H]([C@@H](C)O)NC(=O)[C@H](CCCCN)NC(=O)[C@@H](Cc4c[nH]c5ccccc45)NC(=O)[C@H](Cc4c[nH]c5ccccc45)NC(=O)[C@H](Cc4ccccc4)NC3=O)cc2)cc1` [conjugate 1d], for which the “cytotoxicity throughout the study” value in data set [1] is given as “targeted but cell selective cytotoxicity”. Moreover, the “cytotoxic effect on TRAMP C2” value in data set [2] is “most potent targeted therapeutic effect”. Moreover, the “release of free drug in liver homogenate” value in data set [3] (37° C.) was “could hardly be detected”. For the same compound, the degradation of conjugate result in data set [4] (all tested pH values (pH 2, 5, 7.4), 37° C.) was “rapid degradation”. Besides, the half-life at 0.4 mg/ml in data set [4] (all tested pH values, 37° C., read-out: average degradation t1/2 (converted)) is 480 min. Further, the “cytotoxic effect on H1299” value in data set [5] is given as “most active”.
